Measurements: IntAct's records for PubMed 31515488

B1: Coiled-coil domain-containing protein 106 (Homo sapiens), Q9BWC9 (parent)
chain: MNDRSSRRRTMKDDETFEISIPFDEAPHLDPQIFYSLSPSRRNFEEPPEAASSALALMNSVKTQLHMALERNSWLQKRIEDLEEERDFLRCQLDKFISSARMEAEDHCRMKPGPRRMEGDSRGGAGGEASDPESAASSLSGASEEGSASERRRQKQKGGASRRRFGKPKARERQRVKDADGVLCRYKKILGTFQKLKSMSRAFEHHRVDRNTVALTTPIAELLIVAPEKLAEVGEFDPSKERLLEYSRRCFLALDDETLKKVQALKKSKLLLPITYRFKR
B2: Transcriptional repressor p66-beta (Homo sapiens), Q8WXI9 (parent)
chain: MDRMTEDALRLNLLKRSLDPADERDDVLAKRLKMEGHEAMERLKMLALLKRKDLANLEVPHELPTKQDGSGVKGYEEKLNGNLRPHGDNRTAGRPGKENINDEPVDMSARRSEPERGRLTPSPDIIVLSDNEASSPRSSSRMEERLKAANLEMFKGKGIEERQQLIKQLRDELRLEEARLVLLKKLRQSQLQKENVVQKTPVVQNAASIVQPSPAHVGQQGLSKLPSRPGAQGVEPQNLRTLQGHSVIRSATNTTLPHMLMSQRVIAPNPAQLQGQRGPPKPGLVRTTTPNMNPAINYQPQSSSSVPCQRTTSSAIYMNLASHIQPGTVNRVSSPLPSPSAMTDAANSQAAAKLALRKQLEKTLLEIPPPKPPAPLLHFLPSAANSEFIYMVGLEEVVQSVIDSQGKSCASLLRVEPFVCAQCRTDFTPHWKQEKNGKILCEQCMTSNQKKALKAEHTNRLKNAFVKALQQEQEIEQRLQQQAALSPTTAPAVSSVSKQETIMRHHTLRQAPQPQSSLQRGIPTSARSMLSNFAQAPQLSVPGGLLGMPGVNIAYLNTGIGGHKGPSLADRQREYLLDMIPPRSISQSISGQK
B3: Tuftelin-interacting protein 11 (Homo sapiens), Q9UBB9 (parent)
chain: MSLSHLYRDGEGRIDDDDDERENFEITDWDLQNEFNPNRQRHWQTKEEATYGVWAERDSDDERPSFGGKRARDYSAPVNFISAGLKKGAAEEAELEDSDDEEKPVKQDDFPKDFGPRKLKTGGNFKPSQKGFAGGTKSFMDFGSWERHTKGIGQKLLQKMGYVPGRGLGKNAQGIINPIEAKQRKGKGAVGAYGSERTTQSMQDFPVVDSEEEAEEEFQKELSQWRKDPSGSKKKPKYSYKTVEELKAKGRISKKLTAPQKELSQVKVIDMTGREQKVYYSYSQISHKHNVPDDGLPLQSQQLPQSGKEAKAPGFALPELEHNLQLLIDLTEQEIIQNDRQLQYERDMVVNLFHELEKMTEVLDHEERVISNLSKVLEMVEECERRMQPDCSNPLTLDECARIFETLQDKYYEEYRMSDRVDLAVAIVYPLMKEYFKEWDPLKDCTYGTEIISKWKSLLENDQLLSHGGQDLSADAFHRLIWEVWMPFVRNIVTQWQPRNCDPMVDFLDSWVHIIPVWILDNILDQLIFPKLQKEVENWNPLTDTVPIHSWIHPWLPLMQARLEPLYSPIRSKLSSALQKWHPSDSSAKLILQPWKDVFTPGSWEAFMVKNIVPKLGMCLGELVINPHQQHMDAFYWVIDWEGMISVSSLVGLLEKHFFPKWLQVLCSWLSNSPNYEEITKWYLGWKSMFSDQVLAHPSVKDKFNEALDIMNRAVSSNVGAYMQPGARENIAYLTHTERRKDFQYEAMQERREAENMAQRGIGVAASSVPMNFKDLIETKAEEHNIVFMPVIGKRHEGKQLYTFGRIVIYIDRGVVFVQGEKTWVPTSLQSLIDMAK
partner: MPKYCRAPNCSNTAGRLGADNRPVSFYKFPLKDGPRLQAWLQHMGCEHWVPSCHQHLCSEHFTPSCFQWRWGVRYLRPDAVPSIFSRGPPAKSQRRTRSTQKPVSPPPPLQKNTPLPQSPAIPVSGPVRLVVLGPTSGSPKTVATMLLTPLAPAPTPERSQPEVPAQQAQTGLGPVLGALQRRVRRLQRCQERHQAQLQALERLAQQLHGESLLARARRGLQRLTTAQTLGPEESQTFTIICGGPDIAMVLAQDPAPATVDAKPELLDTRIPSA
B4: Leucine-rich repeat and calponin homology domain-containing protein 1 (Homo sapiens), Q9Y2L9 (parent)
chain: MATPGSEPQPFVPALSVATLHPLHHPHHHHHHHQHHGGTGAPGGAGGGGGGSGGFNLPLNRGLERALEEAANSGGLNLSARKLKEFPRTAAPGHDLSDTVQADLSKNRLVEVPMELCHFVSLEILNLYHNCIRVIPEAIVNLQMLTYLNLSRNQLSALPACLCGLPLKVLIASNNKLGSLPEEIGQLKQLMELDVSCNEITALPQQIGQLKSLRELNVRRNYLKVLPQELVDLSLVKFDFSCNKVLVIPICFREMKQLQVLLLENNPLQSPPAQICTKGKVHIFKYLSIQACQIKTADSLYLHTMERPHLHQHVEDGKKDSDSGVGSDNGDKRLSATEPSDEDTVSLNVPMSNIMEEEQIIKEDSCHRLSPVKGEFHQEFQPEPSLLGDSTNSGEERDQFTDRADGLHSEFMNYKARAEDCEELLRIEEDVHWQTEGIISSSKDQDMDIAMIEQLREAVDLLQDPNGLSTDITERSVLNLYPMGSAEALELQDSALNGQIQLETSPVCEVQSDLTLQSNGSQYSPNEIRENSPAVSPTTNSTAPFGLKPRSVFLRPQRNLESIDPQFTIRRKMEQMREEKELVEQLRESIEMRLKVSLHEDLGAALMDGVVLCHLVNHIRPRSVASIHVPSPAVPKLSMAKCRRNVENFLEACRKLGVPEADLCSPCDILQLDFRHIRKTVDTLLALGEKAPPPTSALRSRDLIGFCLVHILFIVLVYITYHWNALSA

Variants of: B1
Settings: with atf4_human ATF4, P18848
Sequence of atf4_human ATF4, P18848 (P18848 whole entry): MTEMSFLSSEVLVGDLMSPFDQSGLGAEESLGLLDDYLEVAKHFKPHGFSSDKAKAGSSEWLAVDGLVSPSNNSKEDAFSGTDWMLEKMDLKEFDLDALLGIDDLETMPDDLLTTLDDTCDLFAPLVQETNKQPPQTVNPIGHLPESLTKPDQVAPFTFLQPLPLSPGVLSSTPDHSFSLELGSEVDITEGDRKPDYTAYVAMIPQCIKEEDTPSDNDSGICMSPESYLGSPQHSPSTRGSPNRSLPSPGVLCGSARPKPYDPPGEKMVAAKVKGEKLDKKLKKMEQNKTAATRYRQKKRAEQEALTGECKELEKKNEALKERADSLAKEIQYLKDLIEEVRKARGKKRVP

| Variant | effect of a mutation on the interaction |
| --- | --- |
| A54T | with no effect |

Variants of: B1
Settings: with fam9b_human FAM9B

| Variant | effect of a mutation on the interaction |
| --- | --- |
| A54T | with no effect |

Variants of: B1
Settings: with ptbp2_human PTBP2, Q9UKA9
Sequence of ptbp2_human PTBP2, Q9UKA9 (Q9UKA9 whole entry): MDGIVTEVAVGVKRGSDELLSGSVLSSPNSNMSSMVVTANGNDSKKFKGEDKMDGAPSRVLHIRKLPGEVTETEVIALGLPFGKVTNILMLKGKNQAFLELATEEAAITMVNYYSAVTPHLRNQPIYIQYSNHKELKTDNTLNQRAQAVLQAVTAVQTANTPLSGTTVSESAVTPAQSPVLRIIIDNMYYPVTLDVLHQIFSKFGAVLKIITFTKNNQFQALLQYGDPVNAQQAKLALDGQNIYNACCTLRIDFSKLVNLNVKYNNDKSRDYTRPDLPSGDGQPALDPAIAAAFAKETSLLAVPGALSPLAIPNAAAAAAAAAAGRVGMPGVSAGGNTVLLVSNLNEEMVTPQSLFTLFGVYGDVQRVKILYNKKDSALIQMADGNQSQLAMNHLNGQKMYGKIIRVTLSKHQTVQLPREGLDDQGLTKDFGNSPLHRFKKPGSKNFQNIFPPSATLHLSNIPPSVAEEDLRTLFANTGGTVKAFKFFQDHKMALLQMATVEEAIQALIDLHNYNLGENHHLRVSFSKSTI

| Variant | effect of a mutation on the interaction |
| --- | --- |
| A54T | with no effect |

Variants of: B2
Settings: with traf1_human TRAF1, Q13077
Sequence of traf1_human TRAF1, Q13077 (Q13077 whole entry): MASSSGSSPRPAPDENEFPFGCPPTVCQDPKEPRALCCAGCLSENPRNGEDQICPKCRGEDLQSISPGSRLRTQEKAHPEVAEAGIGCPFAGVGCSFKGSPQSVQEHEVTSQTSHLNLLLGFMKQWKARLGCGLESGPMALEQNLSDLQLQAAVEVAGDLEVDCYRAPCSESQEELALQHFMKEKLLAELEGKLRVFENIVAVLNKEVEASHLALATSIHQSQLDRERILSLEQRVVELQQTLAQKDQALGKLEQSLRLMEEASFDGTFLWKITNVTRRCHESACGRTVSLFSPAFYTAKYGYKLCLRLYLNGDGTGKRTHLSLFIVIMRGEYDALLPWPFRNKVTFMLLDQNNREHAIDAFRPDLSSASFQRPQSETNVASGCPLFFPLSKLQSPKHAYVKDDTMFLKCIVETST

| Variant | effect of a mutation on the interaction |
| --- | --- |
| A490V | with no effect |

Variants of: B3
Settings: with thap8_human THAP8, Q8NA92

| Variant | effect of a mutation on the interaction |
| --- | --- |
| S688L | with no effect |
| R8Q | with no effect |

Variants of: B4
Settings: with dock8_human DOCK8, Q8NF50
Sequence of dock8_human DOCK8, Q8NF50 (Q8NF50 whole entry): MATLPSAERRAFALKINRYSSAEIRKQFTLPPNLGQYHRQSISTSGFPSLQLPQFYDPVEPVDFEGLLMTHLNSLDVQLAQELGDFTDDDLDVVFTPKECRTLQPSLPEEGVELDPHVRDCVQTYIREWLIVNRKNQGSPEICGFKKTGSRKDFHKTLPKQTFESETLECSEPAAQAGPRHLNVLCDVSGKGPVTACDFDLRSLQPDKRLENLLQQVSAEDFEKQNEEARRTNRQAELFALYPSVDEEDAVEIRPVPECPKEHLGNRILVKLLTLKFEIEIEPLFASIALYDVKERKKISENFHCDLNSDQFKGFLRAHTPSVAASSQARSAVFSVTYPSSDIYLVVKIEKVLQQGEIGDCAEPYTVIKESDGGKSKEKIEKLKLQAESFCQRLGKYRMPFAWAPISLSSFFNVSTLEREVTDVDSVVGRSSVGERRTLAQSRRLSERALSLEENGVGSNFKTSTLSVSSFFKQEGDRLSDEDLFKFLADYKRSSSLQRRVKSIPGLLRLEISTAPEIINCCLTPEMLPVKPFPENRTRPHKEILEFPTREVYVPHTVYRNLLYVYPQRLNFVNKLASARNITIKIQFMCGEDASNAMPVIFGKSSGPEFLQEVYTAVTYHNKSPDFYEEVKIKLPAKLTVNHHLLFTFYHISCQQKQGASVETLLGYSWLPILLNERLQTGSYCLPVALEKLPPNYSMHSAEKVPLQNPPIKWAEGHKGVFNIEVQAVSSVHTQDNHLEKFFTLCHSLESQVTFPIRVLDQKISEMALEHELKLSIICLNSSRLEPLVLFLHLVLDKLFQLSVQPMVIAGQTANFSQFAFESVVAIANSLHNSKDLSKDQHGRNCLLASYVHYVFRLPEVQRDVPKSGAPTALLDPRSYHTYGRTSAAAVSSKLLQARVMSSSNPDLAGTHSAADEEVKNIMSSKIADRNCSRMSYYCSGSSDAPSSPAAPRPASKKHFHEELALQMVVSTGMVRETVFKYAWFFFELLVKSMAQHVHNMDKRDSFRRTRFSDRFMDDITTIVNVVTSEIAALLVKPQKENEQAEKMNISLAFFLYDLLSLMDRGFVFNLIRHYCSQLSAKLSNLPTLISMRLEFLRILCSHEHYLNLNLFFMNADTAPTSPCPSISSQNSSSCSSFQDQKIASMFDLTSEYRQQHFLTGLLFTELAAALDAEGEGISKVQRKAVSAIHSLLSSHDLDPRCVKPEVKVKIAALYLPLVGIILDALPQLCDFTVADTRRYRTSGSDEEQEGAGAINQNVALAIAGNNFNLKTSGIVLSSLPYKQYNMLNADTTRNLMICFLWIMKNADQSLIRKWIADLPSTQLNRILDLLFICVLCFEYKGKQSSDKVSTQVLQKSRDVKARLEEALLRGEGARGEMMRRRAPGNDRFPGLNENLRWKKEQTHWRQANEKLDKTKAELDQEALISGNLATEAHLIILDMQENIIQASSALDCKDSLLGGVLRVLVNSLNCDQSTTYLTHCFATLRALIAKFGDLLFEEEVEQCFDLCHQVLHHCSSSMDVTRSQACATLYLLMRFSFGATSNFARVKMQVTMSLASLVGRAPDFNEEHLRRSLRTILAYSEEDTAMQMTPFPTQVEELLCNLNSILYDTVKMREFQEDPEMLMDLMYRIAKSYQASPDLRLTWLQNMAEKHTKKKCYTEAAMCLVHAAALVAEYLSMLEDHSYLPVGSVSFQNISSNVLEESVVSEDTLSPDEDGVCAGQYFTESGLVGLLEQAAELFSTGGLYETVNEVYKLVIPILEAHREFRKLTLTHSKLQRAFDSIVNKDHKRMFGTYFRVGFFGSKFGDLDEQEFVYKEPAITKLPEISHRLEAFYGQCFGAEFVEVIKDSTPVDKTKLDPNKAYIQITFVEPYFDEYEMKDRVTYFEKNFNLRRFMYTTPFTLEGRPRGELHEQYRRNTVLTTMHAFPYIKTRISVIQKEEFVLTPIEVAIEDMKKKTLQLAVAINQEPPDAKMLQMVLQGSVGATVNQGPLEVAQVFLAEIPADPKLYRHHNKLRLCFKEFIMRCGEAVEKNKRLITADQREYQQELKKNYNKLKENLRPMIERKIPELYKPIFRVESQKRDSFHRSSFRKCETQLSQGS

| Variant | effect of a mutation on the interaction |
| --- | --- |
| A486S | with no effect |
